The target of experiment [1] is T1, butyrophilin subfamily 1 member A1 (human, UniProt Q13410 27-526).
T1 construct: HuProt array protein, full-length recombinant from yeast; also called BTN1A1
T1 sequence: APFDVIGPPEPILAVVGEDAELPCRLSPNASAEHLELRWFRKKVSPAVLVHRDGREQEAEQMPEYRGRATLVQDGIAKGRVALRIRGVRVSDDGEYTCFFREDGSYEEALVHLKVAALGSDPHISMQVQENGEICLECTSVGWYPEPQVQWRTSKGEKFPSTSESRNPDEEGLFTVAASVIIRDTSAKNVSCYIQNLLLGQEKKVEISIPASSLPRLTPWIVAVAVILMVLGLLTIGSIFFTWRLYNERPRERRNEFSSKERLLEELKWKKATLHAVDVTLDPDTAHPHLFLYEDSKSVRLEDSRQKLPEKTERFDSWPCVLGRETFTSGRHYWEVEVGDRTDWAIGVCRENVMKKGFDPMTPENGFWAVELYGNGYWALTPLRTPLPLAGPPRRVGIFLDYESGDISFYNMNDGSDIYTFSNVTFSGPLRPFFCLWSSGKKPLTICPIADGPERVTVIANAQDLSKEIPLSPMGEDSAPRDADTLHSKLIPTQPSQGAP

Experiment [2] addresses T2, dual specificity phosphatase 12 (human, UniProt Q9UNI6 1-340).
T2 construct: HuProt array protein, full-length recombinant from yeast; also called DUSP12

Experiment [3] addresses T3, actinin alpha 1, transcript variant 2 (human, UniProt P12814 1-892).
T3 construct: HuProt array protein, full-length recombinant from yeast; also called ACTN1

The target of experiment [4] is T4, kelch like family member 40 (human, UniProt Q2TBA0 1-621).
T4 construct: HuProt array protein, full-length recombinant from yeast; also called KLHL40
T4 sequence: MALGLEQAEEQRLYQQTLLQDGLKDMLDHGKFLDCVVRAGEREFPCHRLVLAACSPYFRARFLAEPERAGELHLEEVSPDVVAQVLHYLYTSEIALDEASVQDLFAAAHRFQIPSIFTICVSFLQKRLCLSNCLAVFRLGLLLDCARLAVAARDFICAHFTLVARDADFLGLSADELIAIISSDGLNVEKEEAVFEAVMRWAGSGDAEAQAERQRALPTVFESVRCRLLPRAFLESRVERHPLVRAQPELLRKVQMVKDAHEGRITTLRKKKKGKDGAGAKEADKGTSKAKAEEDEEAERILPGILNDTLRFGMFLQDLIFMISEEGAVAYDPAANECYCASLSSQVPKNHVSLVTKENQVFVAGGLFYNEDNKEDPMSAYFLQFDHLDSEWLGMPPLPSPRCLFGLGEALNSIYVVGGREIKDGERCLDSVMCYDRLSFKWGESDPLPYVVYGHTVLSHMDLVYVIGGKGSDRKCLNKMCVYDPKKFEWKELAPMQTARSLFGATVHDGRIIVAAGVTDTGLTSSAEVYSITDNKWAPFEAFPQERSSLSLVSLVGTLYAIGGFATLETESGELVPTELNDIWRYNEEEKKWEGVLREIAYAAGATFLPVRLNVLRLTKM

In experiment [5] the target is T5, membrane palmitoylated protein 2, transcript variant 3 (human, UniProt Q14168 1-576).
T5 construct: HuProt array protein, full-length recombinant from yeast; also called MPP2
T5 sequence: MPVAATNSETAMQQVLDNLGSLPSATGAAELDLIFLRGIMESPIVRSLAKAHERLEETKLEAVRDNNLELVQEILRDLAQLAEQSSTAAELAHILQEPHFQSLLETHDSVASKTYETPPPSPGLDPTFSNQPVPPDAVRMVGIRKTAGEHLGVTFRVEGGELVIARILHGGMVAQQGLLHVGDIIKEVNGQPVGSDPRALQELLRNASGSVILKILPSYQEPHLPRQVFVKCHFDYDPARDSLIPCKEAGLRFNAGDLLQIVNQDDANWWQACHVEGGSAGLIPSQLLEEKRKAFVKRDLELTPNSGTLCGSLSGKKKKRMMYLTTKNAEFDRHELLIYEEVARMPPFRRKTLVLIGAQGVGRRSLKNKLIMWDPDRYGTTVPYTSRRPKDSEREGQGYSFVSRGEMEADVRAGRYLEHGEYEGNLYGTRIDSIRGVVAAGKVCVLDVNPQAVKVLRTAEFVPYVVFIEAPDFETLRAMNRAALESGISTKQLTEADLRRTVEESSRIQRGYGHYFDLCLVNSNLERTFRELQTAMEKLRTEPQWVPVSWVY

Experiment [6] deals with T6, zinc finger with KRAB and SCAN domains 4, transcript variant X1 (human, UniProt Q969J2 1-545).
T6 construct: HuProt array protein, full-length recombinant from yeast; also called ZKSCAN4
T6 sequence: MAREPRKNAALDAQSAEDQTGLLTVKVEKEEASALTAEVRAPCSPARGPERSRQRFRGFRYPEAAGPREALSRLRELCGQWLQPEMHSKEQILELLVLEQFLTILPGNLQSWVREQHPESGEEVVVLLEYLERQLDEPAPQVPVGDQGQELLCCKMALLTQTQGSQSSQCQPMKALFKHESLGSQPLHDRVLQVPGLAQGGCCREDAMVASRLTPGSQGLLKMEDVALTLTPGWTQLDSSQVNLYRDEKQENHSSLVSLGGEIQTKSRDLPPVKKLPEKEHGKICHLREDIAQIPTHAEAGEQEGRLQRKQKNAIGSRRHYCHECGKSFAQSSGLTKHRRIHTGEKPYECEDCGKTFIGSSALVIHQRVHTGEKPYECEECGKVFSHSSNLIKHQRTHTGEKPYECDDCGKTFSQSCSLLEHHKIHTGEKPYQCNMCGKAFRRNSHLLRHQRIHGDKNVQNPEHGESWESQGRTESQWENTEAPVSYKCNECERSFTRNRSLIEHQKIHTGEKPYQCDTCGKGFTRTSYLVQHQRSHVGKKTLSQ

T2 sequence (Q9UNI6 whole entry): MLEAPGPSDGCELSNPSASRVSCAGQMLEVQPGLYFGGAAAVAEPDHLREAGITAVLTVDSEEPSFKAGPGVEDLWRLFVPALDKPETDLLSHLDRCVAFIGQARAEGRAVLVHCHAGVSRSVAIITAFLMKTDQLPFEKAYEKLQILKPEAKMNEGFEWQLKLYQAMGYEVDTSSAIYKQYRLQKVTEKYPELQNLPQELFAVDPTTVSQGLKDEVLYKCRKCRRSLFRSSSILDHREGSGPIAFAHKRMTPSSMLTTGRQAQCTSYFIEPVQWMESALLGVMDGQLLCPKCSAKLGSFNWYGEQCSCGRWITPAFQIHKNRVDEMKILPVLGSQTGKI
T3 sequence (P12814 whole entry, change not shown): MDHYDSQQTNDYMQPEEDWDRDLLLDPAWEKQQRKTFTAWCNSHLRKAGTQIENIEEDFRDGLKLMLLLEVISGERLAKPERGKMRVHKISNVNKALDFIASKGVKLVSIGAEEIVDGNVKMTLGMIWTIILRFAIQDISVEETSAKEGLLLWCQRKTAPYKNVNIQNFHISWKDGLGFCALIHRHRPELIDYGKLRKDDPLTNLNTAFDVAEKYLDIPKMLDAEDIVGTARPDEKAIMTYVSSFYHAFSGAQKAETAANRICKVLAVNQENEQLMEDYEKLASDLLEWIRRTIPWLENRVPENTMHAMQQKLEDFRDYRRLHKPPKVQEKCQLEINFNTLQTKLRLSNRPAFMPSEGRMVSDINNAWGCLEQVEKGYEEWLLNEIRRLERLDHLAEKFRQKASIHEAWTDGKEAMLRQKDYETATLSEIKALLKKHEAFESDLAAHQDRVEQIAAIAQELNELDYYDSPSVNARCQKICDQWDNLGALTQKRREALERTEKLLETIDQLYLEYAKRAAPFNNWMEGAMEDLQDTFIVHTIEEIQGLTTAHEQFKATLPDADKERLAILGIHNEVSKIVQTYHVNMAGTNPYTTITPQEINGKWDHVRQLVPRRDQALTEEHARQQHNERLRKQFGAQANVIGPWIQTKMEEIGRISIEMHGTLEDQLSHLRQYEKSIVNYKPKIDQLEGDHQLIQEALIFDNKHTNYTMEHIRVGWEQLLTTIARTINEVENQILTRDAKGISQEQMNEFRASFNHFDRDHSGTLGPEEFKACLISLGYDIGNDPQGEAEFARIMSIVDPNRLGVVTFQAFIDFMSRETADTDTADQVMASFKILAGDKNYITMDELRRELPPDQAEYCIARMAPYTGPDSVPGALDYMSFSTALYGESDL

B1: TBRE1013 (antibody, V domains shown)
VH: EVQLVESGGGLVKPGGSLRLSCAGSGFSFSSYSMNWVRQAPGKGLEWVSSISSKSSSKNYIDSVKNRFIISRDNAKNSLYLQMNSLRAEDTAVYYCARDLELIIAAGAPLDHWGQGTLVTVSS
VL: DIQMTQSPSSLSASVGDRVTITCRASQSIKNYVNWYQQKPGEAPNLLIFAASNLQSGVPSRFTGSGSGTDFSLTISSLQPEDFAAYYCQQTYSHPRTFGQGTRVEIKR
notes: detected with anti-human IgG Fc
Consider B1, for which, in experiment [1], the binding result is “binds”.

B2: TBRE1007 (antibody, V domains shown)
VH: QVQLQESGPGLVRPSETLSLTCDVSGYLISSGYYWGWVRQPPGKGLEWIGSVYHSGNAYYNPSLKGRVTMSVDTSKNQFSLKLTSVAAEDTAVYYCAREHRSGYQRYWGQGTLVTVSS
VL: IQMTQSPSSLSASVGDRVTITCRASQAIANSLAWYQQRPGKAPKLLIYAASSLESGVPSRFSGSGSGTDYTLTISSLQPEDFATYYCQQYYINPRTFGQGTKVEIKR
notes: as for B1
Regarding B2, the binding result in experiment [2] and in experiment [3] was “binds” each time.

B3: TBRE1012 (antibody, V domains shown)
VH: QVQLQESGPGLVKPTQTLSLTCTVSGGSISSGSYYWNWIRQPAGKGLEWIGNIYTSGNTDYNPSLKSRVTISLDTSKNQVSLNLTSVTAADTAVYYCATTPSSSWYWYFDPWGQGTLVTVSS
VL: DLQMTQSPSSLSASIGDRVTITCRASQSISTYFNWYQQKPGKAPKLLIYAASSLQSGVPSRFSGSGSGTDFTLTITSLQPEDFATYYCQQTYSNPWTFGQGTKVDFKR
notes: as for B1
For the molecule B3, the binding result in experiment [4] and in experiment [5] was “binds” each time.

B4: TBRE1009 (antibody, V domains shown)
VH: EVQLVESGGGLVKPGGSLRLSCVGSGFTFSNYSMNWVRQAPGRGLEWVSSISWGSSYINYADSVKGRFTISRDNAKNSLYLQMTSLTAEDTAVYYCACRRIYQGFDPWGQGTLVT
VL: DIQMTQSPSSLSASVGDRVTISCRASHNINTYLNWYQHKPGKAPKIVIYGASSLQSGVPSRFSGSGSGTDFSLTISSLQREDFATYFCQQSFNTVLTFGGGTRVDI
notes: as for B1
For the molecule B4, in experiment [6], the binding result is “binds”.

Values taken from patent US20220204643A1 (published 2022).
